Measurements: article PMC5213842, “Characterization and Crystal Structure of a Robust Cyclohexanone Monooxygenase” (Angewandte Chemie (International Ed. in English), 2016)

Assays:
[1] = biological target: T1, TmCHMO (Thermocrispum municipale, UniProt A0A1L1QK39); set-up: steady-state kinetics, NADPH consumption followed by absorbance at 340 nm; details: 150 uM NADPH, pH 7.0, 25 °C; substrate
T1 construct: purified recombinant enzyme (E. coli used as expression host for whole-cell work)
T1 sequence (A0A1L1QK39 1-541): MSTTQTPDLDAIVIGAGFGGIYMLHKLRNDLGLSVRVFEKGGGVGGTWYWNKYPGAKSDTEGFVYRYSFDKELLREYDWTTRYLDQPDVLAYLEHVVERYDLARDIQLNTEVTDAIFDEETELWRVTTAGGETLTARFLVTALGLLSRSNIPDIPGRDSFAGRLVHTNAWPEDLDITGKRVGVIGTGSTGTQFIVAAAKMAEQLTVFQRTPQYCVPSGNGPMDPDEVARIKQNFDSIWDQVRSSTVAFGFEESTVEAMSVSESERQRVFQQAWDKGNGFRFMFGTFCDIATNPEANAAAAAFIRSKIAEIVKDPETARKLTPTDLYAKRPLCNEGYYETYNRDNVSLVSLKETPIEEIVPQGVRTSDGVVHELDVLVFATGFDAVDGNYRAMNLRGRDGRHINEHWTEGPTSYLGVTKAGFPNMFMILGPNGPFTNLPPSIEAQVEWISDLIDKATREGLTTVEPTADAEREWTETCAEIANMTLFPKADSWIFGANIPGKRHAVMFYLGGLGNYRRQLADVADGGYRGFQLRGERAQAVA
Experimental: Steady-State Kinetics. Steady-state kinetic parameters for purified TmCHMO and AcCHMO were determined using a V-660 spectrophotometer (Jasco). Enzyme (0.02-4 μM), NADPH (150 μM), and increasing substrate concentrations were reacted in air-saturated 50 mM Tris-HCl at pH 7.0 and 25 °C. The rate of NADPH consumption was determined by following the decrease in absorbance at 340 nm (ɛ340 = 6.22 mM-1 cm-1 ). The initial rates of the reactions were plotted as a function of the substrate concentrations. […] Among the assayed compounds (Figure S3), only progesterone and cyclopentadecanone (50 μM) were not substrates of either enzyme based on the NADPH consumption assay. 19 4. EXPERIMENTAL SECTION Materials. NADPH was acquired from Jülich Chiral Solutions GmbH. All other materials were acquired from Sigma-Aldrich unless otherwise specified. Cloning of TmCHMO and BVMOs Purification. The amino acid sequence of a putative CHMO from the thermophilic actinomycete T. municipale DSM 44069 was retrieved from the NCBI database (http://www.ncbi.nlm.nih.gov). This organism is able to grow at 28-60 °C.[8] The TmCHMO sequence was found by carrying out a BLASTP (http://blast.ncbi.nlm.nih.gov/Blast.cgi) using the amino acid sequence of AcCHMO as a query sequence. A codon-optimized TmCHMO gene was synthetized and cloned into pUC57 plasmid by GenScript. […]

[2] = tested on: O=C1CC2C=CCC12; assay: purified protein
[3] = tested on: O=C1CCC1; assay: purified protein
[4] = tested on: O=C1CCCCC1; assay: purified protein
[5] = biological target: T2, TfPAMO (Thermobifida fusca, UniProt Q47PU3); assay: small-scale conversion; format: biochemical; details: racemic substrate; enzyme preparation not given
T2 construct: gene pamO
T2 sequence (Q47PU3 whole entry): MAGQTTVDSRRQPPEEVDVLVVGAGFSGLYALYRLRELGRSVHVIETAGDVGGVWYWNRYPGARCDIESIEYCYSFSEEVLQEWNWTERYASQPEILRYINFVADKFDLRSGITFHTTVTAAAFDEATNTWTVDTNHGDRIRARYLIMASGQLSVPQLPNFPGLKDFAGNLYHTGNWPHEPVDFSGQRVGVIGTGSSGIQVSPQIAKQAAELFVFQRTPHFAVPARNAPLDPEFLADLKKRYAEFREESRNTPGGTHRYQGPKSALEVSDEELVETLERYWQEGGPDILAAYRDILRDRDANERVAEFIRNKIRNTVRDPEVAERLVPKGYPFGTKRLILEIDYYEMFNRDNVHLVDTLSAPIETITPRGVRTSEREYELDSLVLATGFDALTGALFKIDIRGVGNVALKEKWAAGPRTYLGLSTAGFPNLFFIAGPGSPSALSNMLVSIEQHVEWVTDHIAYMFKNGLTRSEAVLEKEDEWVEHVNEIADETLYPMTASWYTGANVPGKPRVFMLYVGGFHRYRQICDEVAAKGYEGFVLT

[6] = substrate: O=C1CC2C=CCC12; assay: steady-state kinetics; format: biochemical, Thermocrispum municipale
[7] = substrate: O=C1CCC1; assay: steady-state kinetics; format: biochemical, Thermocrispum municipale
[8] = substrate: O=C1CCCCC1; assay: steady-state kinetics; format: biochemical, Thermocrispum municipale
[9] = substrate: CC(=O)Cc1ccccc1; assay: purified protein, by the assay type; set-up: steady-state kinetics, NADPH consumption followed by absorbance at 340 nm; details: pH 7.0; 25.0 °C
Experimental: (§1) Steady-State Kinetics. Steady-state kinetic parameters for purified TmCHMO and AcCHMO were determined using a V-660 spectrophotometer (Jasco). Enzyme (0.02-4 μM), NADPH (150 μM), and increasing substrate concentrations were reacted in air-saturated 50 mM Tris-HCl at pH 7.0 and 25 °C. The rate of NADPH consumption was determined by following the decrease in absorbance at 340 nm (ɛ340 = 6.22 mM-1 cm-1 ). The initial rates of the reactions were plotted as a function of the substrate concentrations. […] Among the assayed compounds (Figure S3), only progesterone and cyclopentadecanone (50 μM) were not substrates of either enzyme based on the NADPH consumption assay. 19 4. EXPERIMENTAL SECTION Materials. NADPH was acquired from Jülich Chiral Solutions GmbH. All other materials were acquired from Sigma-Aldrich unless otherwise specified. Cloning of TmCHMO and BVMOs Purification. The amino acid sequence of a putative CHMO from the thermophilic actinomycete T. municipale DSM 44069 was retrieved from the NCBI database (http://www.ncbi.nlm.nih.gov). This organism is able to grow at 28-60 °C.[8] The TmCHMO sequence was found by carrying out a BLASTP (http://blast.ncbi.nlm.nih.gov/Blast.cgi) using the amino acid sequence of AcCHMO as a query sequence. A codon-optimized TmCHMO gene was synthetized and cloned into pUC57 plasmid by GenScript. The TmCHMO gene was subcloned using standard methods into the pCRE2 plamid[9] with XhoI and HindIII restriction sites at the 5’ end and 3’ end, respectively. The resulting plasmid is a pBAD vector harboring a gene encoding TmCHMO fused to the C-terminus of a thermostable variant of phosphite dehydrogenase (PTDH). A histidine tag at the N-terminus of the PTDH is also included in this construct. The same construct containing either the AcCHMO gene or the TfPAMO gene, instead of the TmCHMO gene, was carried out for a previous study[9] and used here to obtain the corresponding fusion proteins. The TmCHMO gene was also subcloned into a pBAD plasmid containing the SUMO (small ubiquitin-related modifier) gene with a N-terminal histidine tag (pBAD-His-Tag-SUMO-TmCHMO).

[10] = substrate: CC(=O)c1ccccc1; assay: purified protein, by the assay type; set-up: steady-state kinetics, NADPH consumption followed by absorbance at 340 nm; details: pH 7.0; 25.0 °C
Experimental: as §1

[11] = substrate: CCC(C)=O; assay: purified protein, by the assay type; set-up: steady-state kinetics, NADPH consumption followed by absorbance at 340 nm; details: pH 7.0; 25.0 °C
Experimental: as §1

[12] = substrate: CCCCCCC(C)=O; assay: purified protein, by the assay type; set-up: steady-state kinetics, NADPH consumption followed by absorbance at 340 nm; details: pH 7.0; 25.0 °C
Experimental: as §1

[13] = substrate: CCCCCCCCC(C)=O; assay: purified protein, by the assay type; set-up: steady-state kinetics, NADPH consumption followed by absorbance at 340 nm; details: pH 7.0; 25.0 °C
Experimental: as §1

[14] = substrate: O=C1CCCC1; assay: purified protein, by the assay type; set-up: steady-state kinetics, NADPH consumption followed by absorbance at 340 nm; details: pH 7.0; 25.0 °C
Experimental: as §1

CSc1ccccc1 [thioanisole]
Km [1]: < 60 µM

AcCHMO (Acinetobacter johnsonii)
kcat [2]: 4 s⁻¹ | kcat [3]: 4 s⁻¹ | Km [4]: 9 µM | kcat [4]: 6 s⁻¹

O=C1CC2C=CCC12 (racemic) [bicyclo[3.2.0]hept‐2‐en‐6‐one]
small-scale conversion [5]: By contrast, TfPAMO produced all four possible lactones

B1: TmCHMO (Thermocrispum municipale DSM 44069) (protein)
chain: T1 sequence (A0A1L1QK39 1-541)
notes: purified recombinant enzyme (E. coli used as expression host for whole-cell work)
kcat [6]: 2 s⁻¹ | kcat [7]: 2 s⁻¹ | kcat [8]: 2 s⁻¹ | Km [9]: 200 µM | Km [10]: 5000 µM | Km [11]: 500 µM | Km [12]: 100 µM | Km [13]: 50 µM | Km [14]: 20 µM
